Data from patent US20260234655A1, “Nuclear Targeted DNA Delivery and Compositions for Use in Practicing the Same” (Seawolf Therapeutics, Inc., priority 2022, published 2026).

B1: DTS with 7 repeats of UAS: DNA with GFP cassette and DTS of 7 UAS repeats (nucleic acid)
DNA: CGGAGGACTGTCCTCCGTGAGTCCTAGCGGAGGACTGTCCTCCGTCTTCACAGGCGGAGGACTGTCCTCCGTAGGGTTCCTCGGAGGACTGTCCTCCGACACTAGAGTCGGAGGACTGTCCTCCGGATAGTATCACGGAGGACTGTCCTCCGAGCAAACGAACGGAGGACTGTCCTCCG
B2: DTS with 5 repeats of UAS: DNA with GFP cassette and DTS of 5 UAS repeats (nucleic acid)
DNA: CGGAGGACTGTCCTCCGTGAGTCCTAGCGGAGGACTGTCCTCCGTCTTCACAGGCGGAGGACTGTCCTCCGTAGGGTTCCTCGGAGGACTGTCCTCCGACACTAGAGTCGGAGGACTGTCCTCCG
modifications: DNA nuclear targeting sequence within DNA carrying a GFP cassette, further chemistry not given here
notes: DNA with GFP cassette and DTS of 5 UAS repeats
B3: DTS with 3 repeats of UAS: DNA with GFP cassette and DTS of 3 UAS repeats (nucleic acid)
DNA: CGGAGGACTGTCCTCCGTGAGTCCTAGCGGAGGACTGTCCTCCGTCTTCACAGGCGGAGGACTGTCCTCCG
modifications: DNA nuclear targeting sequence within DNA carrying a GFP cassette, further chemistry not given here
notes: DNA with GFP cassette and DTS of 3 UAS repeats
B4: DTS with 4 repeats of UAS: DNA with GFP cassette and DTS of 4 UAS repeats (nucleic acid)
DNA: CGGAGGACTGTCCTCCGTGAGTCCTAGCGGAGGACTGTCCTCCGTCTTCACAGGCGGAGGACTGTCCTCCGTAGGGTTCCTCGGAGGACTGTCCTCCG
modifications: DNA nuclear targeting sequence within DNA carrying a GFP cassette, further chemistry not given here
notes: DNA with GFP cassette and DTS of 4 UAS repeats
B5: DTS with 10 repeats of UAS: DNA with GFP cassette and DTS of 10 UAS repeats (nucleic acid)
DNA: CGGAGGACTGTCCTCCGTGAGTCCTAGCGGAGGACTGTCCTCCGTCTTCACAGGCGGAGGACTGTCCTCCGTAGGGTTCCTCGGAGGACTGTCCTCCGACACTAGAGTCGGAGGACTGTCCTCCGGATAGTATCACGGAGGACTGTCCTCCGAATGGACTAACGGAGGACTGTCCTCCGAGCAAACGAACGGAGGACTGTCCTCCGTACACCGATCCGGAGGACTGTCCTCCGGCGCTCGGCACGGAGGACTGTCCTCCG
B6: DTS with 3 repeats of TetO: DNA with GFP cassette and DTS of 3 TetO repeats (nucleic acid)
DNA: CTCGAGTTTACTCCCTATCAGTGATAGAGAACGTATGTCGAGTTTACTCCCTATCAGTGATAGAGAACGATGTCGAGTTTACTCCCTATCAGTGATAGAGAACGTATGTCGAGTTTAC
modifications: DNA nuclear targeting sequence within DNA carrying a GFP cassette, further chemistry not given here
notes: DNA with GFP cassette and DTS of 3 TetO repeats
B7: DTS with 7 repeats of TetO: DNA with GFP cassette and DTS of 7 TetO repeats (nucleic acid)
DNA: CTCGAGTTTACTCCCTATCAGTGATAGAGAACGTATGTCGAGTTTACTCCCTATCAGTGATAGAGAACGATGTCGAGTTTACTCCCTATCAGTGATAGAGAACGTATGTCGAGTTTACTCCCTATCAGTGATAGAGAACGTATGTCGAGTTTACTCCCTATCAGTGATAGAGAACGTATGTCGAGTTTATCCCTATCAGTGATAGAGAACGTATGTCGAGTTTACTCCCTATCAGTGATAGAGAACGTATGTCGAGGTAGGCGTGTACGGTGGGAGGCCTATATAAGCAGAGCTCGTTTAGTGAACCGTCAGATCGCCTGGAGAATTCA
B8: DTS with 4 repeats of TetO: DNA with GFP cassette and DTS of 4 TetO repeats (nucleic acid)
DNA: CTCGAGTTTACTCCCTATCAGTGATAGAGAACGTATGTCGAGTTTACTCCCTATCAGTGATAGAGAACGATGTCGAGTTTACTCCCTATCAGTGATAGAGAACGTATGTCGAGTTTACTCCCTATCAGTGATAGAGAACGTATGTCGAGTTTAC
B9: DTS with 6 repeats of TetO: DNA with GFP cassette and DTS of 6 TetO repeats (nucleic acid)
DNA: CTCGAGTTTACTCCCTATCAGTGATAGAGAACGTATGTCGAGTTTACTCCCTATCAGTGATAGAGAACGATGTCGAGTTTACTCCCTATCAGTGATAGAGAACGTATGTCGAGTTTACTCCCTATCAGTGATAGAGAACGTATGTCGAGTTTACTCCCTATCAGTGATAGAGAACGTATGTCGAGTTTATCCCTATCAGTGATAGAGAACGTATGTCGAGTTTAC
B10: DTS with 2 repeats of TetO: DNA with GFP cassette and DTS of 2 TetO repeats (nucleic acid)
DNA: CTCGAGTTTACTCCCTATCAGTGATAGAGAACGTATGTCGAGTTTACTCCCTATCAGTGATAGAGAACGATGTCGAGTTTAC
modifications: DNA nuclear targeting sequence within DNA carrying a GFP cassette, further chemistry not given here
notes: DNA with GFP cassette and DTS of 2 TetO repeats
B11: DTS with 5 repeats of TetO: DNA with GFP cassette and DTS of 5 TetO repeats (nucleic acid)
DNA: CTCGAGTTTACTCCCTATCAGTGATAGAGAACGTATGTCGAGTTTACTCCCTATCAGTGATAGAGAACGATGTCGAGTTTACTCCCTATCAGTGATAGAGAACGTATGTCGAGTTTACTCCCTATCAGTGATAGAGAACGTATGTCGAGTTTACTCCCTATCAGTGATAGAGAACGTATGTCGAGTTTA

System: growth-arrested HepG2 cells
Assay: Number of TFBS repeats in the DTS (TetO, UAS), co-transfection with TetR or Gal4 mRNA in growth-arrested HepG2 cells; GFP intensity
Assay type: cell-based
Conditions: growth-arrested HepG2 cells, 12 h
Experimental: Co-transfection of DNA and mRNA into HepG2 cells. HepG2 cells were purchased from ATCC and grown in complete media (EMEM+10% fetal bovine serum, ATCC). For co-transfection experiments, cells were seeded at confluence onto collagen coated 384-well plates and cultured for 48 hours in complete media followed by 48 hours in complete media supplemented with […] aphidicolin to prevent cell division. After the outgrowth period, cells were transfected using Lipofectamine3000 (Invitrogen) transfection reagent according to the manufacturer's instructions. RNA and DNA were independently complexed with Lipofectamine3000 in Opti-MEM I (Gibco) for 15 minutes. RNA and DNA complexes were then mixed, followed by 1:10 dilution into complete media supplemented with 0.75 μM aphidicolin. Media was aspirated from the plated HepG2 cells and replaced with the transfection mix. DNA was transfected from 17.5 ng to 4.38 ng per well. mRNA was transfected from 70 ng to 0.07 ng per well. Cells were live-imaged using a 4× objective with a GFP filter set and brightfield at 3-hour intervals for 72 hours using a Cytation5 automated microscope (Agilent) attached to a BioSpa8 automated incubator (Agilent). Gen5IPrime (Agilent) image analysis software was used to quantify the number of GFP cells and GFP Intensity per well.
In this study, DNAs were engineered to comprise DTSs having different numbers of TFBS repeats for TetR or Gal4, and the impact of multiple sequences assessed in vitro by co-transfection of mRNA encoding TetR or Gal4 NTF. Growth-arrested HepG2 cells were co-transfected with mRNA encoding the NTF protein along with DNA comprising a cognate DTS and a GFP expression cassette. Each NTF mRNA was paired with a cognate DNA in the co-transfection, where the cognate DNA comprised a DTS with varying numbers of cognate TFBS repeats. For example, the TetR mRNA was paired with DNAs comprising DTSs with 2, 3, 4, 5, 6, or 7 repeats of a TetR TFBS (e.g., TetO). Twenty-four hours after transfection, GFP expression was assessed by measuring GFP fluorescence intensity.
The increase in gene expression appeared to increase with the number of TetO repeats in the DTS, with 7 repeats producing an increase in GFP expression greater than 10-fold at the highest amount of RNA (e.g., 17.5 ng RNA) compared to DNA alone (FIG. 16A).
The Gal4 mRNA was paired with DNAs comprising DTSs with 1, 2, 3, 4, 5, 7, or 10 repeats of a Gal4 TFBS (e.g., UAS). Twelve hours after transfection, GFP expression was assessed by measuring GFP fluorescence intensity. […] The increase in gene expression appeared to increase with the number of UAS repeats in the DTS up to 5 repeats, while the increase in gene expression appeared saturable as 5, 7, and 10 repeats performed similarly (FIG. 16B). Co-transfection of Gal4 mRNA and DNA comprising a DTS of 5, 7, or 10 repeats produced an increase in GFP expression greater than 10-fold at the highest amount of RNA (e.g., 17.5 ng RNA) compared to DNA alone (e.g., 0 ng RNA) in HepG2 cells (FIG. 16B).

Row | Molecule | gene expression over DNA alone on co-transfection with Gal4 mRNA
1 | DTS with 2 repeats of UAS: DNA with GFP cassette and DTS of 2 UAS repeats (DNA CGGAGGACTGTCCTCCGTGAGTCCTAGCGGAGGACTGTCCTCCG; DNA nuclear targeting sequence within DNA carrying a GFP cassette, further chemistry not given here) | did not substantially increase gene expression
2 | DTS with 1 repeat of UAS: DNA with GFP cassette and DTS of 1 UAS (Gal4 TFBS) (DNA ACACTAGAGTCGGAGGACTGTCCTCCGTGAGTCCTAG; DNA nuclear targeting sequence within DNA carrying a GFP cassette, further chemistry not given here) | did not substantially increase gene expression
3 | B1 | did substantially increase gene expression
4 | B2 | did substantially increase gene expression
5 | B3 | did substantially increase gene expression
6 | B4 | did substantially increase gene expression
7 | B5 | did substantially increase gene expression

Same assay, conditions: growth-arrested HepG2 cells, 24 h

Row | Molecule | gene expression over DNA alone on co-transfection with TetR mRNA
8 | B6 | did substantially increase gene expression
9 | B7 | did substantially increase gene expression
10 | B8 | did substantially increase gene expression
11 | B9 | did substantially increase gene expression
12 | B10 | did not substantially increase gene expression
13 | B11 | did substantially increase gene expression

Same assay, conditions: highest amount of RNA (17.5 ng RNA), 24 h

Row | Molecule | increase in GFP expression compared to DNA alone on co-transfection with TetR mRNA
14 | B7 | greater than 10 fold
